6 molecules from publication PMC5557676, “Structural Characterization of Acidic M17 Leucine Aminopeptidases from the TriTryps and Evaluation of Their Role in Nutrient Starvation in Trypanosoma brucei” (mSphere, 2017) can be followed below.

Several values for one entry are separate records, joined by “and”; a condition that tells them apart may be missing. Identical values can stand only once.

The target of data set [1] is T1, TbLAP-A (Trypanosoma brucei, UniProt Q385B0).
T1 construct: gene Tb11.02.4440; full length, E. coli BL21(DE3); N-terminal His6 tag, HRV 3C-cleaved or with a noncleavable His tag; homohexamer; N-terminal domain aa 2-197, C-terminal domain aa 215-521
T1 sequence (Q385B0 1-521): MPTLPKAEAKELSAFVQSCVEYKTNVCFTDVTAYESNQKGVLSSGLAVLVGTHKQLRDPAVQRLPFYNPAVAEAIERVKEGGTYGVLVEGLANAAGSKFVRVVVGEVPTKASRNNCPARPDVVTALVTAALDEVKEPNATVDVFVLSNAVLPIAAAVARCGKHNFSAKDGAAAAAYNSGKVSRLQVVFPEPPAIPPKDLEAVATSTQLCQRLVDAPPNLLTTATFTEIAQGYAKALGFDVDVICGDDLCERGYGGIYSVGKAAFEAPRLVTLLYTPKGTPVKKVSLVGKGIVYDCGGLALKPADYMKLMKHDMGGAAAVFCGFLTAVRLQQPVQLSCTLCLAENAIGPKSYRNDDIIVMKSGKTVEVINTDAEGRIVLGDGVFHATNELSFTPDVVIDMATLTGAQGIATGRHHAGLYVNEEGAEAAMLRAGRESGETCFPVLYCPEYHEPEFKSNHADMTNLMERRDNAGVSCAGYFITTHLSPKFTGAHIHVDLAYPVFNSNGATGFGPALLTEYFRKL
Description: native gel zymography, AMC fluorescence. Format: biochemical. The note with it: 7.5 µM substrate, 50 mM Tris pH 8.0, 100 mM KCl, 1 mM MnCl2, 37 °C, 10 min.

Data set [2] addresses T1, TbLAP-A. Kind of data set: X-ray crystal structure. The note with it: Mn2+ in both metal sites, active site. Format: binding.
Data set [3] has as its target Leishmania major acidic M17 leucine aminopeptidase (LmLAP-A) (Leishmania major (Friedlin)). Kind of data set: crystal structure; crystals grown at 20°C by sitting- and hanging-drop vapor diffusion; apo, holo (Mn2+) and inhibitor-bound forms; homohexamer in the crystal.
For data set [4] the target is unchanged. Kind of data set: SEC-MALS; SEC-MALLS on Superdex 200 10/300; 10 mM Tris pH 8.0, 200 mM NaCl, 1 mM DTT; 0.1, 0.5, 1.0 and 3.0 mg/ml (TbLAP-A also 5 mg/ml), incubated at least 3 h at room temperature. On the technique in general: Size exclusion chromatography separates by hydrodynamic size, large species first.
Data set [5] has as its target Trypanosoma brucei acidic M17 leucine aminopeptidase (TbLAP-A) (Trypanosoma brucei (Lister427)). Kind of data set: crystal structure; crystals grown at 20°C by sitting- and hanging-drop vapor diffusion; apo, holo (Mn2+) and inhibitor-bound forms; homohexamer in the crystal.
Data set [6] shares this target. Kind of data set: SEC-MALS; SEC-MALLS on Superdex 200 10/300; 10 mM Tris pH 8.0, 200 mM NaCl, 1 mM DTT; 0.1, 0.5, 1.0 and 3.0 mg/ml (TbLAP-A also 5 mg/ml), incubated at least 3 h at room temperature.
For data set [7] the target is unchanged. The description is as above. The source holds these as a separate data set.
Data set [8] concerns the molecule itself. Kind of data set: crystal structure; crystals grown at 20°C by sitting- and hanging-drop vapor diffusion; apo, holo (Mn2+) and inhibitor-bound forms; homohexamer in the crystal.
Data set [9] concerns the molecule itself. Description: SEC-MALS; SEC-MALLS on Superdex 200 10/300; 10 mM Tris pH 8.0, 200 mM NaCl, 1 mM DTT; 0.1, 0.5, 1.0 and 3.0 mg/ml (TbLAP-A also 5 mg/ml), incubated at least 3 h at room temperature.

Take `Cc1cc(=O)oc2cc(NC(=O)[C@@H](N)CC(C)C)ccc12` [Leu-AMC]: the “native gel zymography, AMC fluorescence” value at TbLAP-A [1] is on record as “All three LAP-As were active against Leu-AMC”.
On to `CCCCC[C@H](CC(=O)NO)C(=O)N[C@H](C(=O)N1CCC[C@H]1CO)C(C)C` [actinonin], for which, at TbLAP-A [2] (less than full occupancy, six chains), the X-ray crystal structure result is “The TbLAP-A--actinonin complex had six molecules in the asymmetric unit”.
For the molecule `CC(C)C[C@H](NC(=O)[C@@H](O)[C@H](N)Cc1ccccc1)C(=O)O` [bestatin], the X-ray crystal structure entry on TbLAP-A [2] (bicarbonate bound, 12 chains) is recorded as “TbLAP-A was cocrystallized with the inhibitor bestatin”.
What is called stoichiometry N is the number of molecules, sites or subunits per partner or assembly. As to “Leishmania major acidic M17 leucine aminopeptidase (LmLAP-A) (enzyme)”, the stoichiometry N in data set [3] was 6; in data set [4], 6 and 3.
With “Trypanosoma brucei acidic M17 leucine aminopeptidase (TbLAP-A) (enzyme)”, the stoichiometry N in [5] came out at 6; in [6], 3; in data set [7], 6.

B1: Trypanosoma cruzi acidic M17 leucine aminopeptidase (TcLAP-A) (enzyme)
chain: MNRPPATDSGASEFVRSCVNFKTNVEFTDVDAYKKTHTAGLASTFVVILGTHAQLREDALKELPFYCPAVAEAIQRVKKGETYAVLAEGVKNEANERFVRVLVGEVPSEASRTNCSARPDVVVSLLSAALEEIKGPETKVDVFVCSTAALAIAVAAARSAKRNFTAKEGLAARGYCDNCVRLTVVFPTAPNPSPSELVVVATSTQLCQRLVDAPTNLLNTATFAEVAQSYAKELGCAVDVICGEELRERGYGGIYSVGKCAAEAPRLVTLSYKPKDETRKKVALVGKGIVYDSGGLSLKPTNFMTGMKRDMGGAAAVFCGFLTAVRLQMPIELSCTLCLAENAIGPDAYRNDDILTLKSGKTVEVNNTDAEGRLVLGDGVFHATHEISFKPDVLVDMATLTGAQGIATGHRHAGIFVNDEEEELSFLKAGRVSGETCFPVLYCPEYHVTEFRSPVADMRNSVKQVNNASVSCAGHFVANHLSPDFKGKHIHVDMAFPAFENDKATGFGPALLMEYLRNLR
As for B1, the “stoichiometry N” value in data set [8] stood at 6; in data set [9], 3.
